Source: US20050214287A1 (published 2005)

Columns and labels:
CXCR4 (human) = CXCR4 (human) (UniProt P61073); experiment: competition of 125I SDF-1α on CEM-NKr cells
CXCR4 = target: T1, CXCR4 (human, UniProt P61073 1-352); experiment: displacement of 125I SDF-1α on CEM-NKr cells, DisplaceMax panel
T1 construct: whole, on cells; also called the SDF-1 receptor expressed on CEM-NKr; the hallmark SDF-1 receptor
T1 sequence (P61073 whole entry): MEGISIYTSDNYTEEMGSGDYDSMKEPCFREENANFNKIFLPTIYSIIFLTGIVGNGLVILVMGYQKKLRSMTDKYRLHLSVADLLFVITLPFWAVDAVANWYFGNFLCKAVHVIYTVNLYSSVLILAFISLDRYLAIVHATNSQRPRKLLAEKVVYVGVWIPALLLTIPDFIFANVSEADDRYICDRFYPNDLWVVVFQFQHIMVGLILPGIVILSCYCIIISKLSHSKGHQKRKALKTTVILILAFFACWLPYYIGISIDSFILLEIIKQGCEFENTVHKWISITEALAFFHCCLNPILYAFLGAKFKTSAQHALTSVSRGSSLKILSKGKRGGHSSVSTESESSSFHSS

Sequence of CXCR4 (human) (P61073 whole entry): as above

## SDF-1β (human) (from UniProt P48061 22-93) (ligand)
CXCR4 (human)
  IC50: 1.5 nM

B1: I-TAC (mouse) (ligand, UniProt Q9JHH5 22-100, looked up)
chain: FLMFKQGRCLCIGPGMKAVKMAEIEKASVIYPSNGCDKVEVIVTMKAHKRQRCLDPRSKQARLIMQAIEKKNFLRRQNM
notes: also called CXCL11
CXCR4
  binding result: no binding
